The text below walks through data of paper PMC10853800.

As usually defined, the Kd is the constant that tells how readily two partners part at equilibrium. Higher therefore signals lower affinity.

In one data set the target is RAD51 WT (UniProt Q06609 1-339). Kind of data set: negative-stain EM.
The target of the next data set is RAD51 T309A (UniProt Q06609 1-339, T309A). Nature of the data set: negative-stain EM.
In data set [1] the target is T1, RAD51 Y54F/Y315F (UniProt Q06609 1-339, Y54F;Y315F). Nature of the data set: negative-stain EM.
T1 sequence (Q06609 whole entry Y54F/Y315F): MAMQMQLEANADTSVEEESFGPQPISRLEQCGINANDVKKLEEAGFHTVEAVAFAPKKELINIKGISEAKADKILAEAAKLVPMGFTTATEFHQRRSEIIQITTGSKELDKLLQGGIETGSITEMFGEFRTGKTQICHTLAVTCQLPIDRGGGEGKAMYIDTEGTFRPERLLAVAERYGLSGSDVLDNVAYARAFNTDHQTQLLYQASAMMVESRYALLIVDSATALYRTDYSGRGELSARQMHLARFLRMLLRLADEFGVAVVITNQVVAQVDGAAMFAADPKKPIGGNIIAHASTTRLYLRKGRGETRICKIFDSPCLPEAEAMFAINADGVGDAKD
The target of another data set is T2, EYA4 1-365 (UniProt O95677 1-365).
T2 sequence: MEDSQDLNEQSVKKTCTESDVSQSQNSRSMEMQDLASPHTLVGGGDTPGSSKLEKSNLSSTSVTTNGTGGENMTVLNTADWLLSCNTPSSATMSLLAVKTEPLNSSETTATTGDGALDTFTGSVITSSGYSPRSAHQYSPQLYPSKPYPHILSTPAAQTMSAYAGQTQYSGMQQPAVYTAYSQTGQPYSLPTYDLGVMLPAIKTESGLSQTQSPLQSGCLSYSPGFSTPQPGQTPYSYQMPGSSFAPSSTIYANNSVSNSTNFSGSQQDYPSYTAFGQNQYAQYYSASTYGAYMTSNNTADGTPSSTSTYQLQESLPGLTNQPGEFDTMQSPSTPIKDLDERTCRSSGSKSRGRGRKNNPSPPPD
Nature of the data set: MST.

The target of another data set is T3, EYA4 358-639 (UniProt O95677 358-639).
T3 sequence: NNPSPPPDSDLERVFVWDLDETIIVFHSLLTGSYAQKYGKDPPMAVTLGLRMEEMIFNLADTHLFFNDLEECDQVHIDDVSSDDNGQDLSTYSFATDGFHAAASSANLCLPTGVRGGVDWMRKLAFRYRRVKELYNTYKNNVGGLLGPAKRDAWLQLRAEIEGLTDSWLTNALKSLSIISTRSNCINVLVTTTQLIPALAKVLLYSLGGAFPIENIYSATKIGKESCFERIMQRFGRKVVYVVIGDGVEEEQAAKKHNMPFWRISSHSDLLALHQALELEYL
Nature of the data set: EMSA.

Data set [2] has as its target T1, RAD51 Y54F/Y315F. Nature of the data set: MST.
Data set [3] deals with T1, RAD51 Y54F/Y315F. Nature of the data set: MST. This is another data set of the same source.

RAD51 WT, sequence (Q06609 whole entry): as the sequence (Q06609 whole entry Y54F/Y315F) above, with F54Y, F315Y counted along it
RAD51 T309A, sequence (Q06609 whole entry T309A): as the sequence (Q06609 whole entry Y54F/Y315F) above, with F54Y, T309A, F315Y counted along it

B1: 83(dT) (ssDNA)
DNA: TTTTTTTTTTTTTTTTTTTTTTTTTTTTTTTTTTTTTTTTTTTTTTTTTTTTTTTTTTTTTTTTTTTTTTTTTTTTTTTTTTT
On to B1, for which the binding result with RAD51 WT, with RAD51 T309A and in the data set with RAD51 Y54F/Y315F [1] was “binds” in each case.

B2: Cy5-P1 ssDNA (ssDNA)
DNA: TTATATCCTTTACTTTGAATTCTATGTTTAACCTTTTACTTATTTTGTATTAGCCGGATCCTTATTTCAATTATGTTCAT
Take B2: binding with EYA4 1-365 was put at a Kd of 303 nM. Also, the binding result is “no binding” in the data set with EYA4 358-639 and “binds” with RAD51 Y54F/Y315F [2].

B3: Cy5-P1/P2 dsDNA (dsDNA)
DNA 1: TTATATCCTTTACTTTGAATTCTATGTTTAACCTTTTACTTATTTTGTATTAGCCGGATCCTTATTTCAATTATGTTCAT
DNA 2: ATGAACATAATTGAAATAAGGATCCGGCTAATACAAAATAAGTAAAAGGTTAAACATAGAATTCAAAGTAAAGGATATAA
B3 showed a Kd in the data set with EYA4 1-365 of 732 nM. The figures for the binding result in the data set with EYA4 358-639 and in the data set with RAD51 Y54F/Y315F [3] were “no binding” and “binds”, respectively.
